These results are taken from article PMC6318328, “Structural insights into trans-histone regulation of H3K4 methylation by unique histone H4 binding of MLL3/4” (Nature Communications, 2019).

The nature of data set [1]: Gel filtration, oligomeric state in solution. The format is physicochemical. Particulars: Superdex200 10/300 GL, 20 mM Tris pH 7.5, 150 mM NaCl, 50 μM ZnCl2, 1 mM DTT. On the procedure: Supplementary Fig. 3 Superimposition of gel-filtration curves of PHD6 and ePHD6 domains of MLL3 and MLL4. Gel filtration chromatography of MLL3 ePHD6 (red), PHD6 (pink), MLL4 ePHD6 (brown), PHD6 (green) and protein molecular weight standards (blue, Bio-Rad). Samples were loaded to the Superdex200 10/300 GL (GE Healthcare) column in the buffer containing 20 mM Tris, pH 7.5, 150 mM NaCl, 50 μM ZnCl2,and1mMDTT. […]
(In general: Size exclusion chromatography separates by hydrodynamic size, large species first.)

For data set [2], the target named is T1, MLL4_(ePHD6)1475–1564 (Homo sapiens, UniProt O14686).
T1 construct: MLL4_ePHD6, residues 1475–1564, and residues 1495–1564; GST (N, cleaved yes); His (N, cleaved yes); made in house; host or cells: E. coli BL21 (DE3) Codon plus RIL
T1 sequence (O14686 1475-1564): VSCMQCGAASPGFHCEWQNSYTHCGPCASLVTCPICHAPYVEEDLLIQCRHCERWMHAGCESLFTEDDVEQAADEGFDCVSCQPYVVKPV
As to the kind of experiment: ITC binding of histone peptides to MLL4 ePHD6 (1475–1564). Set-up: key to ITC titration, Kd / Kd: NB: no detectable binding. The following applies: for binding to ePHD6 of MLL4 (in words) / Kd: ITC; for ITC titration, Kd: Supplementary Fig. 4 and 7, MLL4_ePHD6, pH 7.5, 25 °C; for Kd: 20 mM Tris pH 7.5, 150 mM NaCl, 25 °C, protein 50–100 μM in cell, peptide 1–2 mM in syringe, single measurement, error from fitting curve. From the text:
(§1) The DNA fragments of MLL3 and MLL4 PHD domains (MLL3_ePHD6, residues 1055–1144 and residues 1075–1144; MLL3_PHD6, residues 1085–1144; MLL3_PHD5, residues 1009–1055; MLL3_PHD5-6, residues 1008–1144; MLL3_ePHD3, residues 436–525; MLL4_ePHD6, residues 1475–1564, and residues 1495–1564; MLL4_PHD6 residues 1505–1564 and MLL4_PHD5 residues 1429–1475) were subcloned into a modified pET28GST-LIC vector by T4 ligase-independent method (Clontech, 638920) to generate N-terminal GST, His-tagged fusion protein. The recombinant protein was overexpressed in E coli BL21 (DE3) Codon plus RIL (Stratagene) at 15 °C by induction with 0.25 mM IPTG at an OD600 of 0.8 and purified by affinity chromatography on Ni-nitrilotriacetate resin (Qiagen, 30250) followed by thrombin protease treatment to remove the tag. The protein was further purified by HiTrap Q HP column (GE Healthcare, 17115401) by using buffers with 20 mM Tris, pH 8.0, 1 mM DTT, 50 mM NaCl (low salt buffer) or 1 M NaCl (high salt buffer), and Superdex75 gel-filtration column (GE Healthcare, 28989333) by using a buffer containing 20 mM Tris, pH 7.5, 150 mM NaCl, 50 μM ZnCl2, and 1 mM DTT. For crystallization experiments, purified protein was concentrated to 5 mg mL^−1 in the same buffer as gel-filtration by using Amicon Ultra-15 Centrifugal Filter Units (Millipore Corporation, UFC901024).
(§2) For the ITC measurement, the concentrated proteins were diluted into 20 mM Tris, pH 7.5, 150 mM NaCl; the lyophilized peptides (Peptide 2.0 Inc.) were dissolved in the same buffer, and the pH value was adjusted by adding NaOH. Peptides concentrations were estimated from the mass. […] The protein with a concentration of 50–100 μM was placed in the cell chamber, and the peptides with a concentration of 1–2 mM in syringe was injected in 25 (19 for iTC-200) successive injections with a spacing of 180 s (150 s for iTC-200) and a reference power of 13 μcal s^−1 (6 μcal s^−1 for iTC-200). Control experiments were performed under identical conditions to determine the heat signals that arise from injection of the peptides into the buffer.

Data set [3] concerns the target T2, MLL3_(ePHD6)1055–1144 (Homo sapiens, UniProt Q8NEZ4).
T2 construct: MLL3_ePHD6, residues 1055–1144 and residues 1075–1144; GST (N, cleaved yes); His (N, cleaved yes); made in house; host or cells: E. coli BL21 (DE3) Codon plus RIL
T2 sequence (Q8NEZ4 1055-1144): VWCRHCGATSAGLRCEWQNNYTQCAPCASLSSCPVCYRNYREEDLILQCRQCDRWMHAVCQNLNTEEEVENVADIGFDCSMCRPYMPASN
As to the kind of experiment: ITC binding of histone peptides to MLL3 ePHD6 (1055–1144). The following applies: for binding to ePHD6 of MLL3 (in words) / Kd: ITC; for ITC titration, Kd: Supplementary Fig. 4 and 7, MLL3_ePHD6, pH 7.5, 25 °C; for Kd: 20 mM Tris pH 7.5, 150 mM NaCl, 25 °C, protein 50–100 μM in cell, peptide 1–2 mM in syringe, single measurement, error from fitting curve. Details: key to ITC titration, Kd / Kd: NB: no detectable binding.
From the text: as §1, §2
For orientation: ITC needs no label: the signal is the heat of the interaction.

The subject of data set [4] is recombinant nucleosomes (histone H3K4). Briefly: In vitro histone methyltransferase (HMT) assay of MLL3/MLL4 constructs. The data set is classed as biochemical. The following applies: recombinant nucleosomes 0.5 μg, 2.5 μCi [3H]-SAM, 30 °C, 16 h, autoradiography (Fig. 3b, c). On the procedure: Mammalian expression plasmids encoding different fusions of MLL3 PHD and SET domains were subcloned into the pFLAG-CMV2 vector (Sigma-Aldrich, E7033) and were transiently expressed in HEK 293T cells (ATCC® ACS-4500™) by using Lipofectamine 2000 (ThermoFisher Scientific, 11668027) according to manufacturer’s protocol. Two days after transfection, cells were harvested and then lysed by mammalian lysis buffer (20 mM Tris-HCl, 137 mM NaCl, 1.5 mM MgCl2, 1 mM EDTA, 10% glycerol, 1% Triton X-100, 0.2 mM PMSF, 1 μg mL^−1 aprotinin, 2.5 μg mL^−1 leupeptin, and 1 μg mL^−1 pepstatin at pH 8.0). FLAG immunoprecipitation (FLAG IP) was performed in a similar way as described previously. In brief, total cell lysates were incubated with anti-FLAG M2 Affinity Gel (Sigma-Aldrich, A2220) in 4 °C for 5 h and were extensively washed with BC500 (20 mM Tris-HCl, 500 mM KCl, 1.5 mM MgCl2, 0.2 mM EDTA, 10% glycerol, 0.2 mM PMSF at pH 8.0). […]
HMT assay was performed according to a previously described method with minor modifications. […] The signals for HMT activity were detected by autoradiography. The input of the MLL3/4 proteins and nucleosomes were detected by mouse monoclonal anti-FLAG M2 (Sigma-Aldrich, F3165, 1:1000) and rabbit polyclonal anti-H3 antibody (Abcam, ab1791, 1:1000), respectively. […]

Data set [5] relates to fourth (PHD4), fifth (PHD5), and sixth (PHD6) PHD domains of MLL4. The following applies: peptide pull-down; histone H4 fragment containing the first 23 amino acids; ref [29]; cited from earlier work. From the text: (§3) Both MLL3 and MLL4 are multi-domain proteins, containing not only the catalytic SET domain but also a few other domains, including two clusters of PHD domains (Fig. 1a). […] The interaction between histone H4_1–23 and PHD6 do ...

Data set [6] has as its system PHD6 domain of MLL4. The following applies: ITC; ref [29]; cited from earlier work.
From the text: as §3

In the case of “MLL3 PHD6: PHD6 domain of MLL3 (SSCPVCYRNYREEDLILQCRQCDRWMHAVCQNLNTEEEVENVADIGFDCSMCRPYMPASN; left off: GST, N-terminal, cleaved | His tag, N-terminal, cleaved)”, the “oligomeric state in solution” value in data set [1] is “monomer in solution”. Take “H411–21R19A: histone H4-derived mutant peptide (GKGGAKRHAKV; UniProt P62805 12-22, looked up, variant R19A)”: in data set [2], the “binding to ePHD6 of MLL4 (in words)” value was “weakened the binding significantly” and the “ITC titration, Kd” value is “Weak binding”. For the same substance, in data set [3], the “binding to ePHD6 of MLL3 (in words)” value is “weakened the binding significantly” and the “ITC titration, Kd” value is given as “Weak binding”.

For “H3_1–20: histone H3 peptide, residues 1–20”, the Kd entry in data set [2] and in data set [3] was “NB” in each case. On to “H4_1–12R3me2a: histone H4 peptide covering the first 12 residues, asymmetrically methylated (H4R3me2a)”, for which the Kd result in data set [2] and in data set [3] was “NB” throughout. As for “2M: W1109A/E1120A double point mutation of MLL3”, the nucleosomal methyltransferase activity result in data set [4] is on record as “reduced the enzyme activity”. Take “H411–21R17A: histone H4-derived mutant peptide (GKGGAKAHRKV; UniProt P62805 12-22, looked up, variant R17A)”: the “ITC titration, Kd” value in data set [2] and in data set [3] was “NB” throughout.

For “H411–21K16A: histone H4-derived mutant peptide (GKGGAARHRKV; UniProt P62805 12-22, looked up, variant K16A)”, in data set [2], the “binding to ePHD6 of MLL4 (in words)” value is recorded as “weakened the binding significantly” and the “ITC titration, Kd” value is “Weak binding”. In data set [3], the “binding to ePHD6 of MLL3 (in words)” value is recorded as “weakened the binding significantly” and the “ITC titration, Kd” value was “Weak binding”. For “H411–21H18A: histone H4-derived mutant peptide (GKGGAKRARKV; UniProt P62805 12-22, looked up, variant H18A)”, the “ITC titration, Kd” value in data set [2] and in data set [3] was “NB” throughout. “H4R3me2a: histone H4 fragment containing the first 23 amino acids, asymmetrically dimethylated on histone H4R3”: the “recognition by PHD4, PHD5 and PHD6 of MLL4” value in data set [5] is “able to recognize”. For “H41–24H18A: histone H4-derived mutant peptide”, the “ITC titration, Kd” value in data set [2] and in data set [3] was “NB” throughout.

As for “H4R3me0: histone H4 fragment containing the first 23 amino acids, unmethylated”, in data set [5], the “recognition by PHD4, PHD5 and PHD6 of MLL4” value is given as “able to recognize”.

On to “H4_1–23: histone H4 fragment containing the first 23 amino acids”, for which the “interaction with PHD6 domain” value in data set [6] is listed as “confirmed”. Turning to “H4_1–12: histone H4 peptide covering the first 12 residues”, in data set [2], the “binding to ePHD6 of MLL4 (in words)” value is listed as “neither MLL3 nor MLL4 displayed detectable binding” and the Kd entry is recorded as “NB”. Further, in data set [3], the “binding to ePHD6 of MLL3 (in words)” value was “neither MLL3 nor MLL4 displayed detectable binding” and the Kd result was “NB”. Consider “MLL4 PHD6: PHD6 domain of MLL4 (VTCPICHAPYVEEDLLIQCRHCERWMHAGCESLFTEDDVEQAADEGFDCVSCQPYVVKPV; left off: GST, N-terminal, cleaved | His tag, N-terminal, cleaved)”, for which, in data set [1], the “oligomeric state in solution” value is “dimer in solution”. In the case of “1M: W1109A single point mutation of MLL3”, in data set [4], the nucleosomal methyltransferase activity entry is “reduced the enzyme activity”.
